Laboratory results reported in US20130203078A1.
One block for each substance: values may come before it.

Legend:
Experiment in all cases: cell-based or functional assay
[1] = biological target: TNP-BSA conjugate (trinitrophenyl hapten conjugated to bovine serum albumin) (bovine) (UniProt P02769)
[2] = biological target: Human Somatostain Receptor 2 (SSTR2), c-myc tagged with viral glycosilation sequence, on RBL-2H3 cells (human) (UniProt P30874)
[3] = biological target: T1, human native unmodified procaspase-3 (huCasp3) (human) (UniProt P42574)
T1 sequence (looked up): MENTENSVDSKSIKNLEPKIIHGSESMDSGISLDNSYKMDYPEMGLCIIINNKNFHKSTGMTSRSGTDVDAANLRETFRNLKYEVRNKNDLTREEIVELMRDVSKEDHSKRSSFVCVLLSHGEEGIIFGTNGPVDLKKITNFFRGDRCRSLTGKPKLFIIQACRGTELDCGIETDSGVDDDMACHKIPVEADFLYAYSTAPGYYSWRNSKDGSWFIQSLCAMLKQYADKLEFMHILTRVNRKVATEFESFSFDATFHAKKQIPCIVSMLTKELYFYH

[4] = biological target: mutated human procaspase-3 (mut-huCasp3), amino acids 172 to 179 changed from IETDSGVD to IEPDVLME (human) (UniProt P42574)
[5] = biological target: Human Interleukin 8 Receptor (hIL8RA), on RBL-2H3 cells with human granzyme A (Sensor A) (human) (UniProt P25024)
Human Interleukin 8 Receptor (hIL8RA), on RBL-2H3 cells with human granzyme A (Sensor A) (human), sequence (P25024 other isoform, or with tags, fused parts or gaps, form in doubt): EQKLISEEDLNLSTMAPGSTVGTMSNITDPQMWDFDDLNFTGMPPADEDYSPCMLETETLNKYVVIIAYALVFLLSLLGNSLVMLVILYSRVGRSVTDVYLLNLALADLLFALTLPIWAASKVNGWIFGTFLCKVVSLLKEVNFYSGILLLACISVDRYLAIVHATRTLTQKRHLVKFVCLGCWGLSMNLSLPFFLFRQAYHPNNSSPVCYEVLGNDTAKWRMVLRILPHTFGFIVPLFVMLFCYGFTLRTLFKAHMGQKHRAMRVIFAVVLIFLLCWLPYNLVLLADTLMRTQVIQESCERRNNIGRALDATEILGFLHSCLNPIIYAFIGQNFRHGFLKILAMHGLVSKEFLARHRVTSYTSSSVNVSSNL

[6] = biological target: Human Bradykinin Receptor B1 (BDKRB1), c-myc tagged with viral glycosilation sequence, on RBL-2H3 cells (human) (UniProt P46663)
Human Bradykinin Receptor B1 (BDKRB1), c-myc tagged with viral glycosilation sequence, on RBL-2H3 cells (human), sequence (P46663 other isoform, or with tags, fused parts or gaps): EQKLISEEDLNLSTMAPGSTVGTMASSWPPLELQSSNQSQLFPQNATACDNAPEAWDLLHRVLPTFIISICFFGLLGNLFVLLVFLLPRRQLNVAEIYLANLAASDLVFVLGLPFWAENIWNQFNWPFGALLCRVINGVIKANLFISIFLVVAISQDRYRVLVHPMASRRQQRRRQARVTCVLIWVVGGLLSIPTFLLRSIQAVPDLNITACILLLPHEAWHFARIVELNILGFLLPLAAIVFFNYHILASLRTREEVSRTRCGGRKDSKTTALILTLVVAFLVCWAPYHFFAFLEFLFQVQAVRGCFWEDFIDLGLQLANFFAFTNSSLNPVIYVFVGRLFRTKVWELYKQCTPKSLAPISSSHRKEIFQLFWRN

Human Somatostain Receptor 2 (SSTR2), c-myc tagged with viral glycosilation sequence, on RBL-2H3 cells (human), sequence (P30874 other isoform, or with tags, fused parts or gaps): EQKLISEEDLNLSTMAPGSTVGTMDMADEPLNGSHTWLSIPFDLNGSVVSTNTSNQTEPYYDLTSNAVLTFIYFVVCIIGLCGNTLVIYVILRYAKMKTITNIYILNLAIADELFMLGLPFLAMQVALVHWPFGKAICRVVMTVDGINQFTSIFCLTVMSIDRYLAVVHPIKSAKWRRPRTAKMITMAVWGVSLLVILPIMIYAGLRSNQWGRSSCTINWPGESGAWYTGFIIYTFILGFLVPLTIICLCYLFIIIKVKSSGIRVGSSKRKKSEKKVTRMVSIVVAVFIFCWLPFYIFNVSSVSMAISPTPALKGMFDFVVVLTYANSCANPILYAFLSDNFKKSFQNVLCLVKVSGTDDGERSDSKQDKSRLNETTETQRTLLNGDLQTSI
Human IL8, sequence (P10145 28-99 limits assumed): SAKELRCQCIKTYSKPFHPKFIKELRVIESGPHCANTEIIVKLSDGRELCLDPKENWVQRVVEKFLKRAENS

- Fluorescence after 30 minutes at 37 C (released granzyme B, FRET substrate), TNP-BSA 1 pg/mL [1]: 35900 fluorescence
- Fluorescence after 30 minutes at 37 C (released granzyme B, FRET substrate), TNP-BSA 1 ng/mL [1]: 34600 fluorescence
- Fluorescence after 30 minutes at 37 C (released granzyme B, FRET substrate), TNP-BSA 1 ug/mL [1]: 30900 fluorescence
- Fluorescence after 30 minutes at 37 C (released granzyme B, FRET substrate), TNP-BSA 1 fg/mL [1]: 29800 fluorescence
- limit of detection for TNP-BSA [1]: 0.1 ag/mL
Substance: mouse IgE monoclonal antibody against trinitrophenyl hapten from IgELb4 hybridoma (ATCC TIB-141)

Substance: seglitide (peptide)
- Absorbance at maximal dilution of ELISA tested (human granzyme B sandwich ELISA of supernatant, dilution 2250, after subtraction of 0.2 blank) [2]: 2.4 absorbance
- Sensitivity (minimal amount of cells needed) [2]: < 150 cells

- Signal to Background (S/B), caspase-3 treated with granzyme B against caspase-3 only [3]: 2.8
- Signal to Background (S/B), caspase-3 treated with granzyme B against caspase-3 only [4]: 77
- signal to background, supernatant equivalent to 5.000 cells, 384 well plate [4]: > 20
Substance: human granzyme B secreted by stably transfected RBL-2H3 cells (from UniProt P10144 21-247) (enzyme)

Substance: Human IL8 (from UniProt P10145 28-99) (ligand)
- Signal to background at 30 min (released granzyme A activity; condition 2: Sensor A alone, IL8 10 uM) [5]: 16
- Signal to background at 30 min (released granzyme A activity; condition 5: Sensor A mixed with Sensor B, IL8 10 uM and carbachol 10 uM) [5]: 12.5

Substance: kallinin (from UniProt P01042 380-389) (peptide)
- Absorbance at maximal dilution of ELISA tested (human granzyme B sandwich ELISA of supernatant, dilution 2250, after subtraction of 0.2 blank) [6]: 0.8 absorbance
- Sensitivity (minimal amount of cells needed) [6]: < 150 cells
- exocytosis of granzyme B, percent of maximal at 5 minutes [6]: > 90%
- signal to background (S/B) of released granzyme B activity, medium taken at 5 to 15 minutes [6]: 20 to 22
- signal to background (S/B) of released granzyme B activity, medium taken at 30 minutes [6]: 15 to 17
- signal to background (S/B) of released granzyme B activity, medium taken at 60 minutes [6]: 8 to 10
